Assay results: patent publication US9068994

Experiments:
[1] = target: Follicle Stimulating Hormone (FSH) (UniProt P01215); assay: FRET quenching titration, BHQ-10 antibody with Alexa Fluor 488 antigen, in solution
[2] = target: Thyroid Stimulating Hormone (TSH) (UniProt P01215); assay: as above
[3] = target: Chorionic Gonadotropin (CG) (UniProt P01215); assay: as above
Luteinizing Hormone (LH) [4] = target: Luteinizing Hormone (LH) (UniProt P01215); assay: as above
[5] = target: Thyroid Stimulating Hormone (TSH) (UniProt P01215); assay: i-STAT sandwich cartridge with TSH; row Ab on capture beads; detection conjugate: M4-ALP
[6] = target: Thyroid Stimulating Hormone (TSH) (UniProt P01215); assay: i-STAT sandwich cartridge with TSH; row Ab on capture beads; detection conjugate: 414B-ALP
[7] = target: Thyroid Stimulating Hormone (TSH) (UniProt P01215); assay: FRET competition, unlabelled Ab pre-bound to Alexa488 antigen; competitor: BHQ-labelled ME130
[8] = target: Follicle Stimulating Hormone (FSH) (UniProt P01215); assay: i-STAT sandwich cartridge, 0.4 mIU/L TSH plus FSH; row Ab capture; detection Ab: 414B
[9] = target: Thyroid Stimulating Hormone (TSH) (UniProt P01215); assay: FRET competition, unlabelled Ab pre-bound to Alexa488 antigen; competitor: BHQ-labelled 414B
[10] = target: Thyroid Stimulating Hormone (TSH) (UniProt P01215); assay: FRET competition, unlabelled Ab pre-bound to Alexa488 antigen; competitor: BHQ-labelled 5409
[11] = target: Thyroid Stimulating Hormone (TSH) (UniProt P01215); assay: i-STAT sandwich cartridge with TSH; row Ab on capture beads; detection conjugate: T25C-ALP
[12] = target: Thyroid Stimulating Hormone (TSH) (UniProt P01215); assay: i-STAT sandwich cartridge with TSH; row Ab on capture beads; detection conjugate: ME130-ALP
[13] = target: Chorionic Gonadotropin (CG) (UniProt P01215); assay: i-STAT sandwich cartridge, 0.4 mIU/L TSH plus CG; row Ab capture; detection Ab: 414B
[14] = target: Thyroid Stimulating Hormone (TSH) (UniProt P01215); assay: FRET competition, unlabelled Ab pre-bound to Alexa488 antigen; competitor: BHQ-labelled M4
[15] = target: Thyroid Stimulating Hormone (TSH) (UniProt P01215); assay: FRET competition, unlabelled Ab pre-bound to Alexa488 antigen; competitor: BHQ-labelled TSH Ab 544
[16] = target: Thyroid Stimulating Hormone (TSH) (UniProt P01215); assay: i-STAT sandwich cartridge with TSH; row Ab on capture beads; detection conjugate: 5409-ALP
[17] = target: Thyroid Stimulating Hormone (TSH) (UniProt P01215); assay: FRET competition, unlabelled Ab pre-bound to Alexa488 antigen; competitor: BHQ-labelled T25C
Luteinizing Hormone (LH) [18] = target: Luteinizing Hormone (LH) (UniProt P01215); assay: i-STAT sandwich cartridge, 0.4 mIU/L TSH plus LH; row Ab capture; detection Ab: 414B
[19] = target: Follicle Stimulating Hormone (FSH) (UniProt P01215); assay: i-STAT sandwich cartridge, 0.4 mIU/L TSH plus FSH; row Ab capture; detection Ab: 5409
[20] = target: Chorionic Gonadotropin (CG) (UniProt P01215); assay: i-STAT sandwich cartridge, 0.4 mIU/L TSH plus CG; row Ab capture; detection Ab: 5409
[21] = target: Follicle Stimulating Hormone (FSH) (UniProt P01215); assay: i-STAT sandwich cartridge, 0.4 mIU/L TSH plus FSH; row Ab capture; detection Ab: TSH Ab 544
[22] = target: Thyroid Stimulating Hormone (TSH) (UniProt P01215); assay: i-STAT sandwich cartridge with TSH; row Ab on capture beads; detection conjugate: TSH Ab 544-ALP
Luteinizing Hormone (LH) [23] = target: Luteinizing Hormone (LH) (UniProt P01215); assay: i-STAT sandwich cartridge, 0.4 mIU/L TSH plus LH; row Ab capture; detection Ab: 5409
Luteinizing Hormone (LH) [24] = target: Luteinizing Hormone (LH) (UniProt P01215); assay: i-STAT sandwich cartridge, 0.4 mIU/L TSH plus LH; row Ab capture; detection Ab: TSH Ab 544
[25] = target: Chorionic Gonadotropin (CG) (UniProt P01215); assay: i-STAT sandwich cartridge, 0.4 mIU/L TSH plus CG; row Ab capture; detection Ab: TSH Ab 544
[26] = target: Chorionic Gonadotropin (CG) (UniProt P01215); assay: i-STAT sandwich cartridge, 0.4 mIU/L TSH plus CG; row Ab capture; detection Ab: T25C
Luteinizing Hormone (LH) [27] = target: Luteinizing Hormone (LH) (UniProt P01215); assay: i-STAT sandwich cartridge, 0.4 mIU/L TSH plus LH; row Ab capture; detection Ab: T25C
[28] = target: Follicle Stimulating Hormone (FSH) (UniProt P01215); assay: i-STAT sandwich cartridge, 0.4 mIU/L TSH plus FSH; row Ab capture; detection Ab: T25C
[29] = target: Follicle Stimulating Hormone (FSH) (UniProt P01215); assay: i-STAT sandwich cartridge, 0.4 mIU/L TSH plus FSH; row Ab capture; detection Ab: ME130
[30] = target: Chorionic Gonadotropin (CG) (UniProt P01215); assay: i-STAT sandwich cartridge, 0.4 mIU/L TSH plus CG; row Ab capture; detection Ab: ME130
Luteinizing Hormone (LH) [31] = target: Luteinizing Hormone (LH) (UniProt P01215); assay: i-STAT sandwich cartridge, 0.4 mIU/L TSH plus LH; row Ab capture; detection Ab: ME130
Luteinizing Hormone (LH) [32] = target: Luteinizing Hormone (LH) (UniProt P01215); assay: LH-detecting i-STAT cartridge (LH capture, 414B detection), polystyrene LH 5304 scavenger beads added

Substance	Kd [1]	Kd [2]	Kd [3]	Kd (Luteinizing Hormone (LH) [4])	electrochemical current (sandwich signal) [5]	relative fluorescence (relative (same pair = 1.0)) [7]	relative fluorescence (relative (same pair = 1.0)) [9]	relative fluorescence (relative (same pair = 1.0)) [10]	electrochemical current (sandwich signal) [11]	electrochemical current (sandwich signal) [12]	relative fluorescence (relative (same pair = 1.0)) [14]	relative fluorescence (relative (same pair = 1.0)) [15]	electrochemical current (sandwich signal) [16]	relative fluorescence (relative (same pair = 1.0)) [17]	FSH CR (%) (cross reactivity) [19]	CG CR (%) (cross reactivity) [20]	electrochemical current (sandwich signal) [22]	LH CR (%) (cross reactivity) (Luteinizing Hormone (LH) [23])	other results
TSH Ab 544 (Abbott Diagnostics Division) (antibody)	1000 nM	1.31 nM	210 nM	1000 nM	0.11 nA	0.72	0.89	0.96	22.4 nA	34.9 nA	0.92	1	7.98 nA	0.71	–	–	–	–	electrochemical current (sandwich signal) [6]: 25 nA; FSH CR (%) (cross reactivity) [8]: 7.15%; CG CR (%) (cross reactivity) [13]: 117%; LH CR (%) (cross reactivity) (Luteinizing Hormone (LH) [18]): 11.8%
Fitzgerald 10C-CR2151M4 TSH mouse monoclonal antibody, clone 157155	210 nM	0.18 nM	554 nM	300 nM	–	0.76	0.9	0.94	22.5 nA	39.9 nA	1	0.98	20.7 nA	0.74	–	–	0 nA	–	–
Biospacific Cat#5409 SPTNE-5 TSH mouse monoclonal antibody	1000 nM	0.1 nM	500 nM	1000 nM	15.2 nA	0.78	0.88	1	34.6 nA	53.6 nA	0.9	0.93	–	0.78	–	–	1.41 nA	–	CG CR (%) (cross reactivity) [26]: 0.96%; LH CR (%) (cross reactivity) (Luteinizing Hormone (LH) [27]): 3.76%; FSH CR (%) (cross reactivity) [28]: 0.65%; FSH CR (%) (cross reactivity) [29]: 2.43%; CG CR (%) (cross reactivity) [30]: 0.78%; LH CR (%) (cross reactivity) (Luteinizing Hormone (LH) [31]): 10.1%
Biospacific LH 5304 monoclonal antibody (mus beta-LH, Catalog #5304 SP-5)	–	–	–	–	–	–	–	–	–	–	–	–	–	–	–	–	–	–	signal left after scavenger beads (% of signal without beads) (Luteinizing Hormone (LH) [32]): 4%
Fitzgerald Cat#10-T25C TSH mouse monoclonal antibody, clone M94206	300 nM	0.08 nM	40 nM	35 nM	40.9 nA	0.97	0.97	0.95	–	0.68 nA	0.92	0.97	49.7 nA	1	6.25%	13.7%	0.83 nA	9.89%	electrochemical current (sandwich signal) [6]: 0.82 nA

Further substances by falling Kd [1], results first:

Kd [1]	Kd [2]	Kd [3]	Kd (Luteinizing Hormone (LH) [4])	electrochemical current (sandwich signal) [5]	relative fluorescence (relative (same pair = 1.0)) [7]	relative fluorescence (relative (same pair = 1.0)) [9]	relative fluorescence (relative (same pair = 1.0)) [10]	electrochemical current (sandwich signal) [11]	electrochemical current (sandwich signal) [12]	relative fluorescence (relative (same pair = 1.0)) [14]	relative fluorescence (relative (same pair = 1.0)) [15]	electrochemical current (sandwich signal) [16]	relative fluorescence (relative (same pair = 1.0)) [17]	FSH CR (%) (cross reactivity) [19]	CG CR (%) (cross reactivity) [20]	electrochemical current (sandwich signal) [22]	LH CR (%) (cross reactivity) (Luteinizing Hormone (LH) [23])	Substance	other results
70 nM	0.04 nM	45 nM	54 nM	50.5 nA	1	0.99	0.82	0.1 nA	–	0.77	0.82	54.7 nA	0.88	3.9%	11.8%	10.8 nA	11.1%	AbCam ME-130 (ab9390) TSH mouse monoclonal antibody	–
0.1 nM	0.04 nM	0.05 nM	0.05 nM	41.3 nA	0.86	1	0.81	–	–	0.75	0.83	40.3 nA	0.76	260%	84.6%	10.2 nA	348%	Seradyn anti-alpha-LH monoclonal antibody Cat#MIT0414B, clone BB3.1.3	FSH CR (%) (cross reactivity) [21]: 219%; LH CR (%) (cross reactivity) (Luteinizing Hormone (LH) [24]): 467%; CG CR (%) (cross reactivity) [25]: 39.2%
